From patent US20040037843A1 come the findings set out here.

Common to all, as to settings: remark: other sources report otherwise
The target in experiment [1] is HLA-A*0201 (human). Put plainly: competition with 125I-labeled probe peptide for purified HLA, gel filtration. On the technique in general: Size exclusion chromatography separates by hydrodynamic size, large species first.
The target in experiment [2] is HLA-A*0206 (human). Described as above.
Experiment [3] concerns the target HLA-A*6802 (human). Described as above.
For experiment [4], the target named is HLA-A*0201 (human).
Experiment [5] has as its target HLA-A*0206 (human). Put plainly: competition with 125I-labelled standard peptide for purified HLA.
Experiment [6] deals with HLA-A*0201 (human). This is another data set of the same source.
The target in experiment [7] is HLA-A*0202 (human).
Experiment [8] concerns the target HLA-A*0203 (human).
Experiment [9] deals with HLA-A*0206 (human).
Experiment [10] concerns the target HLA-A*6802 (human).
Experiment [11] has as its target HLA-A*0203 (human). Put plainly: competition with 125I-labelled standard peptide for purified HLA.
In experiment [12] the target is HLA-A*0201 (human). The description is as above.
Experiment [13] deals with HLA-A*0203 (human). This is another data set of the same source.
The target in experiment [14] is HLA-A*0201 (human). This is another data set of the same source.
Experiment [15] has as its target HLA-A*0203 (human). This is another data set of the same source.

Read-outs that look alike come from different tables or passages of the source.

The IC50 is the concentration at which inhibition is half-maximal. Higher therefore signals weaker potency in that assay.

Consider GTPEGDLVYV [Peptide 1418.29], for which the IC50 is 313 nM in [1], 40 nM in experiment [2] and 571 nM in experiment [3]. Molecule SLSLGFLFLL [peptide 1419.51, PAP.13] gave an IC50 in experiment [4] of 40 nM. Molecule RMMNDQLMFL [peptide 1126.06, PSM.662] yielded an IC50 in [5] of 40 nM. As for LLSNDMCARV [peptide 1418.53, HuK2.178.V10], the IC50 in experiment [6] is 5.3 nM; in [7] it was 0.7 nM; in [8], 4.3 nM; in experiment [9], 10 nM; in experiment [10], 1700 nM. In the case of KLQCVDLHVV [peptide 1419.24, PSA.166.V10], in experiment [11], the IC50 was 9.5 nM. In experiment [12], DLMLLRLSEPV [peptide 1419.13, PSA.116.V11 / HuK2.120.V11] gave an IC50 of 50 nM. With STCSGDSGGPL [PSA peptide, position 203, 11 amino acids], the relative binding ratio in experiment [13] turned out to be 0.0092; in experiment [14] it was 0.0005. On to GLHGQDLFGV [peptide 1419.62, PAP.196.V10], for which the IC50 in [15] amounted to 3.2 nM.
